These results are taken from US11149077B2, “Targeted therapeutics based on engineered proteins for tyrosine kinases receptors, including IGF-IR” (BRISTOL-MYERS SQUIBB COMPANY, priority 2006, dated 2021).

Changes are numbered by the printed parent chain.

The subject of one data set is RH41 sarcoma xenografts. The experiment in a line: In vivo antitumor activity in RH41 sarcoma xenografts. The conditions noted are these: for % TGI: calculated on day 39; for LCK: gross log cell kill; for AVE weight change: Day 20 to Day 42. How it is done:
*Tumor growth inhibition and probability values calculated on day 39. ^aVehicle was 80% PEG400, 20% dH2O. ^bVehicle was PBS. ^cAverage weight change for each group is the mean difference between weight at the start of treatment (Day 20) and after the end of treatment (Day 42). TVDT was calculated for a size of 500 mg Abbreviations used are as follows: po, oral route; ip, intraperitoneal route; LCK, gross log cell kill calculated as LCK=T−C/(3.32×TVDT) where T-C is the difference in time in days for the treated tumors (T) to reach a predetermined size (tumor target size) relative to the vehicle control group (C) divided by the tumor volume doubling time (TVDT) multiplied by 3.32.
Tumors were propagated in nude mice. Tumor passages occurred every four weeks for human RH41 xenografts. With regard to efficacy testing human tumor xenografts were implanted in nude mice. All tumor passages were subcutaneous (sc).
Antitumor activity was evaluated in terms of: a) cures, and for the murine tumor models, increases in lifespan reflected by the relative median survival time (MST) of treated (T) versus control (C) groups (i.e. % T/C values); and b) primary tumor growth inhibition determined by calculating the relative median times for T and C mice to grow tumors of a predetermined “target” size (1 gm for all sc tumor models described) and expressed as T-C values, in days. The definition of a cured mouse was one whose tumor was undetectable, or <35 mg, when assessed more than 10 tumor volume doubling times (TVDTs) post-treatment. The activity criterion for tumor inhibition/reduction was a statistically significant delay in primary tumor growth consistent with 1 gross log cell kill (LCK). The following formula was employed to calculate LCK: LCK=T−C/(3.32×TVDT)
Where, TVDT=median time (days) for control tumors to reach target size—median time (days) for control tumors to reach half the target size. […] The maximum tolerated dose (MTD) is defined as the dose level immediately […] which excessive toxicity (i.e. more than one death) occurred. […] Statistical evaluations of data were performed using Gehan's generalized Wilcoxon test (Gehan, Biometrika 52:203-223, 1965). Western Blot Analysis of 385A08-Fc

A further data set deals with T1, human IGF-IR (Homo sapiens, UniProt P08069).
T1 construct: The extracellular domain of human IGF-IR (aa 1-932) was cloned into a mammalian expression vector; made in house
The experiment in a line: Surface plasmon resonance (BIAcore) binding kinetics and affinity on immobilized IGF-IR. How it is done:
The binding kinetics of fibronectin-based scaffold proteins binding proteins to the target was measured using BIAcore 2000 or 3000 biosensors (Pharmacia Biosensor). A capture assay was developed utilizing an IGF-IR-Fc fusion. A similar reagent had been described by Forbes et al. (Forbes et al. 2002, European J. Biochemistry, 269, 961-968). The extracellular domain of human IGF-IR (aa 1-932) was cloned into a mammalian expression vector containing the hinge and constant regions of human IgG1. Transient transfection of the plasmid produced a fusion protein, IGF-IR-Fc which was subsequently purified by Protein A chromatography and captured on Protein A immobilized on Biasensor CM5 chips by amine coupling. The kinetic analysis involved the capture of IGF-IR-Fc on Protein A followed by injection of the fibronectin-based scaffold protein in solution and regeneration of the Protein A surface by glycine pH 2.0. Sensorgrams were obtained at each concentration and were evaluated using a program Biaevaluation, BIA Evaluation 2.0 (BIAcore), to determine the rate constants ka (kon) and kd (koff) The dissociation constant, KD was calculated from the ratio of rate constants koff/kon. Typically, a concentration series (2 uM to 0 uM) of purified fibronectin-based scaffold protein was evaluated for binding to protein A captured human IGF-IR-Fc fusion protein.

Data set [1] is described as follows: Differential scanning calorimetry (thermal stability, Tm). It is filed as physicochemical. The conditions noted are these: DSC. The protocol: Differential Scanning calorimetry (DSC) analysis of midscaled clones was performed to determine thermal stability. A 1 mg/ml solution of appropriate clone was scanned in a N-DSC II calorimeter (calorimetry Sciences Corp) by ramping the temperature from 5° C. to 95° C. at a rate of 1 degree per minute under 3 atm pressure. The data was analyzed vs. a control run of the appropriate buffer using a best fit using Orgin Software (OrginLab Corp).

A short description of data set [2]: Size-exclusion chromatography (solution properties, monomericity). It is filed as physicochemical. The protocol: Size-exclusion chromatography (SEC) was performed using a TSKgel Super SW2000 column (TOSOH Biosciences, LLC), 4.6 mm×30 cm, on an Agilent 1100 HPLC system with UV detection at A214 nm and A280 nm and with fluorescence detection (excitation=280 nm, emission=350 nm). A buffer of 100 mM sodium sulfate, 100 mM sodium phosphate, 150 mM sodium chloride, pH 6.8 at a flow rate of 100 μL/min was employed. Samples (0.1 to 1 μg each) at a concentration of approximately 100 μg/mL were injected separately. Gel filtration standards (Bio-Rad Laboratories, Hercules, Calif.) were used for molecular weight calibration.

In the next data set the target is T2, human insulin receptor (Homo sapiens, UniProt P06213).
T2 construct: purchased R&D Systems (Minneapolis, Minn.)
The experiment in a line: BIAcore binding to immobilized human insulin receptor. The conditions noted are these: percentage of signal for insulin binding at similar concentration. The protocol:
One liter E. coli growths of selected optimized clones were prepared and the proteins were purified.
In brief, 60 ug/mL of IR diluted in acetate 4.5 was coupled/immobilized to a level of 8300 RU and 11.9 ug/mL of VEGF-R2-Fc diluted in acetate 5.0 was immobilized to a level of 9700 RU on flow cells 2 and 3. A blank reference surface was prepared on FC1. […] Fibronectin-based scaffold proteins were diluted to 10 uM in HBS-EP (10 mM Hepes 150 mM NaCl 3 mM EDTA 0.05% Surfactant P20) and injected at 20 uL/min for 3 minutes over the flow cells at 25 C and dissociation was observed over 10 mins.

The mark [3] stands for this setting: Table 4, optimized 218C04 clones.
The mark [4] stands for this setting: Table 7, FG loop optimized 338A06 clones.

B1: 385A08-PEG40: 385A08 (SEQ ID NO: 203) coupled via Cys97 to a mono-functional branched 40 kDa PEG (conjugate)
chain: GVSDVPRDLEVVAATPTSLLISWSARLKVARYYRITYGETGGNSPVQEFTVPKNVYTATISGLKPGVDYTITVYAVTRFRDYQPISINYRTEIDKPCQ
modifications: branched 40 kDa PEG via Cys97
Turning to B1, in the data set on RH41 sarcoma xenografts (40 mg/kg, TIWx3, 20 ip), the “Outcome by (% TGI)” value is on record as “A (A % TGI value of >50% was considered active)”, the “% TGI” value is given as 56% and the LCK turned out to be 0.4. In the data set with human IGF-IR, the “off-rate (kd) relative to unmodified 385A08” value is “slightly increased” and the “slower on-rate (ka) relative to unmodified 385A08” value was “approximately 10 fold”. In the data set with human IGF-IR (Table 10, PEGylated variants), the ka is 0.6 1/M*s × 10^+6 and the kd is 2.1 1/s × 10^−4.

B2: 354A10 (protein)
chain: VSDVPRDLEVVAATPTSLLISWSNRLVVKRYYRITYGETGGNSPVQEFTVPHQMKTATISGLKPGVDYTITVYAVTPGGYSGRNYGPISINYRTHHHHHH
Consider B2, for which, in the data set with human IGF-IR (setting [3]), the ka was 1.1 1/M*s × 10^+6 and the kd is 1.8 1/s × 10^−4. In addition, the Tm in data set [1] (Table 3) is 46 °C.

B3: 353F10 (protein)
chain: VSDVPRDLEVVAATPTSLLISWPTHYKVARYYRITYGETGGNSPVQEFTVPKHTYTATISGLKPGVDYTITVYAVTTTKGLRHYGPISINYRTHHHHHH
In the case of B3, in the data set with human IGF-IR (setting [3]), the ka was 3.7 1/M*s × 10^+6 and the kd is 2.1 1/s × 10^−4. For the same molecule, the Tm in data set [1] (Table 3) is 59 °C.

B4: 218C04 (protein)
chain: VSDVPRDLEVVAATPTSLLISWSPYLRVARYYRITYGETGGNSPVQEFTVPSSARTATISGLKPGVDYTITVYAVTPSNIIGRHYGPISINYRT
In the data set with human IGF-IR (clone in solution phase, immobilized IGF-IR), B4 had a Kd of 1.8 nM. Besides, in data set [2], the “solution behaviour by SEC (monomer / aggregation)” value is given as “virtually all monomeric”.

B5: 353H09 (protein)
chain: VSDVPRDLEVVAATPTSLLISWSDKLKVQRYYRITYGETGGNSPVQEFTVPKHDRTATISGLKPGVDYTITVYAVTKMRDYRPISINYRTHHHHHH
B5: in the data set with human insulin receptor (Table 5), the “% IR Binding at 10 μM” value stood at 0%. In the data set with human IGF-IR (setting [3]), the ka was 3.8 1/M*s × 10^+6 and the kd was 2.2 1/s × 10^−4. The Tm in data set [1] (Table 3) came to 55 °C.

B6: 387B01 (protein)
chain: B5 chain with D24A, K25R, Q29A, H53N, D54V, R55Y, K77S, M78L, R82G
B6: the “% IR Binding at 10 μM” value with human insulin receptor (Table 8) came out at 0%. Further, in the data set with human IGF-IR (setting [4]), the ka is reported as 6.5 1/M*s × 10^+6 and the kd is reported as 4.4 1/s × 10^−4. Besides, the Tm in data set [1] (Table 9) came to 63 °C.

B7: 339A01 (protein)
chain: B5 chain with D24T, K25A, D54S, R55H
On to B7, for which, in the data set with human IGF-IR (setting [3]), the ka was 1.2 1/M*s × 10^+6 and the kd is reported as 6.7 1/s × 10^−4.

B8: 386A03 (protein)
chain: B5 chain with D24A, K25R, Q29A, H53N, D54V, R55Y, K77N, M78L, R82G
B8: the “% IR Binding at 10 μM” value in the data set with human insulin receptor (Table 8) was 3%. Further, in the data set with human IGF-IR (setting [4]), the ka was 5.2 1/M*s × 10^+6 and the kd is 4.6 1/s × 10^−4. The Tm in data set [1] (Table 9) came to 62 °C.

B9: 386F10 (protein)
chain: B5 chain with D24A, K25R, Q29A, H53N, D54V, R55Y, K77L, M78L, R82G
Regarding B9, the “% IR Binding at 10 μM” value with human insulin receptor (Table 8) came to 3%. In addition, in the data set with human IGF-IR (setting [4]), the ka is given as 1.9 1/M*s × 10^+6 and the kd is recorded as 2.3 1/s × 10^−4. Moreover, the Tm in data set [1] (Table 9) was determined as 58 °C.

B10: 385A08 (protein)
chain: B5 chain with D24A, K25R, Q29A, H53N, D54V, R55Y, K77R, M78F, R82Q
In the case of B10, the “% IR Binding at 10 μM” value in the data set with human insulin receptor (Table 8) is 0%. Besides, in the data set with RH41 sarcoma xenografts (20 mg/kg, 2qdx20, 28 ip), the AVE weight change was found to be 0.6 g, the “% TGI” value is 33% and the LCK was 0.2. In the data set on RH41 sarcoma xenografts (40 mg/kg, 2qdx20, 28 ip), the AVE weight change is 1.0 g, the “% TGI” value is on record as 19% and the LCK is given as 0.2. In addition, in the data set with human IGF-IR (setting [4]), the ka is on record as 5.7 1/M*s × 10^+6 and the kd is listed as 1.9 1/s × 10^−4. Besides, in the data set with human IGF-IR (Table 10, PEGylated variants), the ka is 6.9 1/M*s × 10^+6 and the kd was 1.6 1/s × 10^−4. Also, the Tm in data set [1] (Table 9) amounted to 59 °C.

B11: 338A05 (protein)
chain: VSDVPRDLEVVAATPTSLLISWSDSLKVSRYYRITYGETGGNSPVQEFTVPKQYHTATISGLKPGVDYTITVYAVTPSNIIGRHYGPISINYRTHHHHHH
Take B11: in the data set with human IGF-IR (setting [3]), the ka is 1.3 1/M*s × 10^+6 and the kd was 3.3 1/s × 10^−4. Also, the Tm in data set [1] (Table 3) worked out at 68 °C.
